Target: VirE2-Venus (expressed in transgenic Arabidopsis roots) (Agrobacterium tumefaciens) (UniProt P0A3W8)
Assay: co-IP

UniProt P0A3W8, sequence (P0A3W8 whole entry): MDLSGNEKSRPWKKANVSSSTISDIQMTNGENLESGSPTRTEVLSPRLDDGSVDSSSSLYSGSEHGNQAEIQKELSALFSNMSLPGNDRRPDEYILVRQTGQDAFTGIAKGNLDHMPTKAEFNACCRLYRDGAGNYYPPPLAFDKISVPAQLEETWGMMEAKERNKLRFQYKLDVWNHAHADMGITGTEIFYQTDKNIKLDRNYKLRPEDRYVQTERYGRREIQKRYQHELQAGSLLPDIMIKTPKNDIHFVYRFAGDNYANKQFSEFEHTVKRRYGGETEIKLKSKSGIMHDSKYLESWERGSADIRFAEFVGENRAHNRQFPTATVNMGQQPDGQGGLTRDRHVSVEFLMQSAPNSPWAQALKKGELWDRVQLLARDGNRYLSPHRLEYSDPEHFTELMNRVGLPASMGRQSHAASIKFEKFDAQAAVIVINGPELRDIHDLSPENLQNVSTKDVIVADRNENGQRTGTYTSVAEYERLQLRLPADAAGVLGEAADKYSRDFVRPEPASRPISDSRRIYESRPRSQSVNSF

Substance | percent of the input co-immunoprecipitated (% of the input)
myc-tagged myosin VIII-2 cargo binding domain (transgenic Arabidopsis roots) (domain or fragment) | 4
myc-tagged myosin VIII-A cargo binding domain (transgenic Arabidopsis roots) (domain or fragment) | 4
myc-tagged myosin VIII-B cargo binding domain (transgenic Arabidopsis roots) (domain or fragment) | 4
myc-tagged myosin XI-K cargo binding domain (transgenic Arabidopsis roots) (domain or fragment) | 4

Source: paper doi:10.1101/2023.03.06.531343
